Reference: publication PMC4613514

Target: Keap1–mCherry (Kelch-like ECH associated protein 1 fused to mCherry) (UniProt Q9Z2X8)
Test: FRET or BRET

Chain of UniProt Q9Z2X8 (Q9Z2X8 whole entry, the tested form may be a part): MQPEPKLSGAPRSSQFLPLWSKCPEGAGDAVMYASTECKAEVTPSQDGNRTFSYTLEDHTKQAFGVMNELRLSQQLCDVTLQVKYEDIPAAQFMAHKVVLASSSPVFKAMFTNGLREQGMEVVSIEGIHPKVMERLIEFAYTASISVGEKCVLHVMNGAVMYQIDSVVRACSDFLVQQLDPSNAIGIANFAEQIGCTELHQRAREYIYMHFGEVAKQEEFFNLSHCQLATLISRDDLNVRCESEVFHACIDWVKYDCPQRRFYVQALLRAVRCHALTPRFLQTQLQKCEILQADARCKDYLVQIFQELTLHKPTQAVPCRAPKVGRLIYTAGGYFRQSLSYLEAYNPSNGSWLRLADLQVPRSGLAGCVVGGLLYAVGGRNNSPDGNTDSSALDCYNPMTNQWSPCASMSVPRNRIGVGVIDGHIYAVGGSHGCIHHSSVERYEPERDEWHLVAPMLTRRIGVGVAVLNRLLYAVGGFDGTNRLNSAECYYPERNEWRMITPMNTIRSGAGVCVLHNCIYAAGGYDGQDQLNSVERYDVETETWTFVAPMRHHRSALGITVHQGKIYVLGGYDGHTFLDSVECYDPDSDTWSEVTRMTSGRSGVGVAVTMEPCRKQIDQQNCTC

Substance	E-FRET (major peak) [%]
EGFP–Nrf2ΔDLG (from UniProt Q60795 1-597) (natural protein)	13
EGFP–Nrf2 double ETGE (from UniProt Q60795 1-597) (natural protein)	21
